± gives the standard deviation of the averaged measurements.
test system: ATP; experiment: switch fluorescence ratio, 500 uM ATP over buffer (Cy3 cluster intensity, sum of 5 cycles each) (fold (ratio)); higher = stronger signal-on switching upon ATP binding; sequences stand for … in TCGTCGGCAGCGTCAGATGTGTATAAGAGACAGTTTTTTTTTTTTTTTTTTTTTTTTT…TC; details: aptamer strand: ATP DNA aptamer (quencher-CACCTGGGGGAGTATTGCGGAGGAAGG + anchor), 100 nM annealed; ATP concentration: 500 uM
How it was run: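 Cy3-labelled switching-strand clusters on a modified Illumina MiSeq flow-cell were annealed to 100 nM quencher-labelled ATP aptamer and imaged first in selection buffer, then after 15 min with 500 uM ATP at 22 °C. NaOH stripping and re-annealing separated each of five buffer/ATP cycles, and clusters outside 100-1000 RFU were excluded. The fluorescence ratio sums target-cycle Cy3 intensity over buffer-cycle Cy3 intensity per cluster and averages it per switch-domain sequence.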
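Also: ATP exposure 15 min at 22 °C before imaging.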

In order of rising switch fluorescence ratio:
1. TTATTGACGC  0.937 ± 0.095
2. TTCAGTAGAT  0.951 ± 0.032
3. TTATGCAGGA  0.955 ± 0.057
4. TTATCGGTTT  0.958 ± 0.019
5. TTCCTAAAGT  0.9622 ± 0.0039
6. TTATTGGTGG  0.966 ± 0.04
7. TTCAAGCGCT  0.967 ± 0.019
8. TTCAGATCCG  0.967 ± 0.0076
9. TTCATCGTTT  0.968 ± 0.011
10. TTATTGCTTA  0.97037 ± 0.00059
11. TTATTTATAT  0.971 ± 0.013
12. TTCATCTGTT  0.9711 ± 0.0084
13. TTCGGGAGGA  0.971 ± 0.038
14. TTATGTGAGT  0.972 ± 0.0085
15. TTATGTGGAG  0.974 ± 0.015
16. TTCGAGGGTA  0.974 ± 0.036
17. TTATGTGGGA  0.975 ± 0.037
18. TTATCTTTGT  0.9758 ± 0.007
19. TTCGGACTTC  0.976 ± 0.064
20. TTATGTGAGG  0.977 ± 0.034
21. TTCAGTGGGT  0.9787 ± 0.009
22. TTCGCGGGGG  0.979 ± 0.011
23. TTCGCTAGTG  0.98 ± 0.033
24. TTATTGGAGC  0.981 ± 0.015
25. TTCATATGTT  0.981 ± 0.012
26. TTCATCGGGA  0.981 ± 0.055
27. TTATTATAAT  0.982 ± 0.021
28. TTATTATTGT  0.982 ± 0.037
29. TTATTTTGTT  0.982 ± 0.034
30. TTATGTCTTC  0.984 ± 0.026
31. TTCATGTTGT  0.984 ± 0.027
32. TTCGAGTTTG  0.9843 ± 0.0032
33. TTATTTAGAG  0.985 ± 0.027
34. TTCAGAGTTG  0.985 ± 0.095
35. TTATTTGGAG  0.986 ± 0.025
36. TTATGATTGG  0.987 ± 0.02
37. TTATTTTGTG  0.987 ± 0.035
38. TTCAAGTGTT  0.987 ± 0.029
39. TTCAGGGTAC  0.987 ± 0.039
40. TTATTTTAGG  0.988 ± 0.044
41. TTCAGATAGA  0.9875 ± 0.0037
42. TTCATGCTTT  0.9882 ± 0.0097
43. TTATTGGTCC  0.989 ± 0.045
44. TTATTTGCGG  0.989 ± 0.025
45. TTCCATGGGA  0.9894 ± 0.0098
46. TTCGGCGAGA  0.989 ± 0.021
47. TTATGATGGG  0.99 ± 0.017
48. TTATGGGTCG  0.99 ± 0.034
49. TTATTTATTG  0.99 ± 0.016
50. TTCAATGTCA  0.99 ± 0.043
51. TTCATAACTT  0.99 ± 0.018
52. TTCCTATTGA  0.99 ± 0.049
53. TTCAAATCGT  0.991 ± 0.013
54. TTCAGTGGGG  0.991 ± 0.039
55. TTCAGGCGGT  0.992 ± 0.025
56. TTCCATTTTG  0.992 ± 0.032
57. TTATTATGGC  0.993 ± 0.05
58. TTATTTTTTA  0.993 ± 0.028
59. TTCGCTTAGG  0.993 ± 0.026
60. TTATTGACAT  0.995 ± 0.021
61. TTCGGAATTA  0.995 ± 0.0066
62. TTCGGCGGTA  0.995 ± 0.011
63. TTATTGGAGA  0.996 ± 0.015
64. TTCAATTGTG  0.9958 ± 0.0053
65. TTCCACGAAG  0.996 ± 0.012
66. TTATCTAGGG  0.997 ± 0.041
67. TTCAAGTAGT  0.997 ± 0.02
68. TTATTGGTAT  0.998 ± 0.018
69. TTCATTTTTG  0.998 ± 0.044
70. TTCGAGTAGT  0.998 ± 0.03
71. TTCAGATGAA  0.9987 ± 0.0015
72. TTATCATAGT  1.005 ± 0.0064
73. TTATCGCAGA  1 ± 0.015
74. TTATCGGCCA  1 ± 0.067
75. TTATCGGGGC  1 ± 0.025
76. TTATCTCATT  1 ± 0.028
77. TTATCTGGAT  1 ± 0.022
78. TTATCTGGGA  0.9995 ± 0.0079
79. TTATCTTTTT  1 ± 0.032
80. TTATGCATGA  1 ± 0.047
81. TTATGGATAA  1 ± 0.018
82. TTATGTGGTA  1 ± 0.02
83. TTATTAAGAC  1 ± 0.032
84. TTATTAGGGC  1 ± 0.083
85. TTATTGTGTG  1 ± 0.023
86. TTATTTAAAT  1 ± 0.04
87. TTATTTTCTG  1 ± 0.014
88. TTCAGTAAGA  1 ± 0.04
89. TTCAGTTTTT  1 ± 0.026
90. TTCATGTGTG  1 ± 0.081
91. TTCATTTCGT  1 ± 0.024
92. TTCCTATTTT  1 ± 0.029
93. TTCGCGGTTA  1 ± 0.03
94. TTCGGCAGTA  1 ± 0.025
95. TTATCTGGGG  1.01 ± 0.055
96. TTATGACTCA  1.01 ± 0.03
97. TTATGATACG  1.01 ± 0.017
98. TTATGATGAT  1.006 ± 0.01
99. TTATGCACGG  1.01 ± 0.044
100. TTATGGATTT  1.01 ± 0.037
101. TTATGGGGTG  1.01 ± 0.027
102. TTATGTCAGC  1.01 ± 0.023
103. TTATGTGTTG  1.01 ± 0.011
104. TTATGTTAGT  1.01 ± 0.056
105. TTATTGTGTT  1.01 ± 0.028
106. TTATTTAGGT  1.01 ± 0.043
107. TTATTTGTCG  1.01 ± 0.019
108. TTCACTAGGT  1.01 ± 0.039
109. TTCAGGAATG  1.01 ± 0.049
110. TTCCAATGTG  1.01 ± 0.029
111. TTCCAGTAGT  1.01 ± 0.03
112. TTCCTTGGTT  1.01 ± 0.012
113. TTCGAACGGG  1.01 ± 0.016
114. TTCGGAAAGA  1.013 ± 0.0082
115. TTCGGAGTTT  1.01 ± 0.12
116. TTCGGGCTAG  1.013 ± 0.0052
117. TTATCCAGGC  1.02 ± 0.12
118. TTATGACTGT  1.015 ± 0.01
119. TTATGTGCTG  1.02 ± 0.041
120. TTATTAAAGG  1.02 ± 0.071
121. TTATTAAGAA  1.02 ± 0.063
122. TTATTAGTCG  1.017 ± 0.0064
123. TTATTGGTCG  1.02 ± 0.061
124. TTATTTATGC  1.02 ± 0.055
125. TTCAATAGGG  1.02 ± 0.036
126. TTCACGGGGG  1.018 ± 0.0078
127. TTCACGGTTC  1.02 ± 0.027
128. TTCATAATA  1.024 ± 0.0029
129. TTCATCATGT  1.02 ± 0.023
130. TTCATGGGT  1.017 ± 0.0054
131. TTCATTGGTA  1.0186 ± 0.00056
132. TTCCCGATGT  1.02 ± 0.0059
133. TTCCCGTGCT  1.022 ± 0.0076
134. TTCCTGGCCT  1.02 ± 0.033
135. TTCCTGTGGG  1.02 ± 0.061
136. TTCGCACCGG  1.021 ± 0.0073
137. TTCGGCGGCA  1.02 ± 0.036
138. TTCGGGGAGG  1.02 ± 0.019
139. TTATCTAGCT  1.03 ± 0.023
140. TTATCTTGTC  1.03 ± 0.072
141. TTATGCAGGT  1.0341 ± 0.00034
142. TTATTGCCTT  1.03 ± 0.025
143. TTCAAGGCAG  1.03 ± 0.043
144. TTCATAGGCT  1.03 ± 0.025
145. TTCCAATTTT  1.03 ± 0.027
146. TTCCCGGCTG  1.03 ± 0.016
147. TTCGAGTCCG  1.03 ± 0.06
148. TTCGATTTAT  1.03 ± 0.024
149. TTCGCGAAAT  1.027 ± 0.01
150. TTATCGCTTA  1.04 ± 0.098
151. TTATGCACGT  1.04 ± 0.049
152. TTATGGGGTA  1.04 ± 0.049
153. TTATTATTAC  1.04 ± 0.062
154. TTCAGATTAC  1.04 ± 0.024
155. TTCGCAGGGT  1.039 ± 0.0029
156. TTCGGAGTT  1.04 ± 0.017
157. TTCATCATAG  1.05 ± 0.029
158. TTCATTTTGG  1.05 ± 0.07
159. TTCCTATCGT  1.046 ± 0.0022
160. TTCGAGTGTC  1.05 ± 0.034
161. TTCGCAGGTT  1.05 ± 0.075
162. TTATCGAGGC  1.06 ± 0.059
163. TTATGTTACT  1.059 ± 0.0023
164. TTATTTGGGC  1.06 ± 0.081
165. TTATTGCACG  1.07 ± 0.068
166. TTATTGCAGC  1.07 ± 0.063
167. TTCCTTTAAA  1.07 ± 0.065
168. TTCGAGCTTC  1.07 ± 0.034
169. TTATGAGGTG  1.08 ± 0.061
170. TTCAGTATTT  1.08 ± 0.09
171. TTCCGTCTAT  1.08 ± 0.086
172. TTCGAGGAAT  1.08 ± 0.099
173. TTCAAGCTGA  1.09 ± 0.069
174. TTCGACTCCT  1.09 ± 0.087
175. TTCAACTGGG  1.104 ± 0.0025
176. TTCAGGGGTG  1.1 ± 0.033
177. TTCCGAGGG  1.102 ± 0.011
178. TTCCACAGGA  1.15 ± 0.15
179. TTCCGGCTAT  1.15 ± 0.064
180. TTCGCATCTA  1.15 ± 0.056
181. TTCCGTTGCG  1.16 ± 0.2
182. TTCCGCGCAG  1.18 ± 0.016
183. TTCACTCCGG  1.2 ± 0.071
184. TTCAATATAG  1.21 ± 0.29
185. TTCCCCGGTG  1.21 ± 0.24
186. TTCCTGTGAT  1.22 ± 0.27
187. TTCCGGGTGA  1.23 ± 0.31
188. TTCCGTTTGA  1.24 ± 0.42
189. TTCCGGGTTG  1.34 ± 0.35
190. TTCGGGGATT  1.37 ± 0.58
191. TTCGGCAATG  1.39 ± 0.38
192. TTCCCCATGG  1.43 ± 0.6
193. TTCCTGGCAT  1.45 ± 0.42
194. TTCGCATAAT  1.62 ± 0.3
195. TTCATGCATC  1.83 ± 1.2
196. TTCGATAGTT  1.89 ± 1.2
197. TTCCTCCCCC  1.94 ± 0.68
198. TTCCTTGGTG  1.94 ± 0.89
199. TTCCTCCCGT  2.01 ± 0.95
200. TTCCGGGTG  3.14 ± 0.75
